Assay results published in PMC12783686, “β-catenin condensation facilitates clustering of the cadherin/catenin complex and formation of nascent cell-cell junctions” (Nature Communications, 2025).

Biological target: T1, mCherry-α-catenin (UniProt P26231 1-906)
T1 construct: Monomeric pool from gel filtration; source: E. coli CK600K or BL21-DE3 Star, purified (Glutathione Sepharose, TEV protease cleavage, gel filtration; the monomeric pool was collected); not shown: GST (from the vector pGEX-2T); mCherry, N-terminal, kept
T1 sequence (looked up): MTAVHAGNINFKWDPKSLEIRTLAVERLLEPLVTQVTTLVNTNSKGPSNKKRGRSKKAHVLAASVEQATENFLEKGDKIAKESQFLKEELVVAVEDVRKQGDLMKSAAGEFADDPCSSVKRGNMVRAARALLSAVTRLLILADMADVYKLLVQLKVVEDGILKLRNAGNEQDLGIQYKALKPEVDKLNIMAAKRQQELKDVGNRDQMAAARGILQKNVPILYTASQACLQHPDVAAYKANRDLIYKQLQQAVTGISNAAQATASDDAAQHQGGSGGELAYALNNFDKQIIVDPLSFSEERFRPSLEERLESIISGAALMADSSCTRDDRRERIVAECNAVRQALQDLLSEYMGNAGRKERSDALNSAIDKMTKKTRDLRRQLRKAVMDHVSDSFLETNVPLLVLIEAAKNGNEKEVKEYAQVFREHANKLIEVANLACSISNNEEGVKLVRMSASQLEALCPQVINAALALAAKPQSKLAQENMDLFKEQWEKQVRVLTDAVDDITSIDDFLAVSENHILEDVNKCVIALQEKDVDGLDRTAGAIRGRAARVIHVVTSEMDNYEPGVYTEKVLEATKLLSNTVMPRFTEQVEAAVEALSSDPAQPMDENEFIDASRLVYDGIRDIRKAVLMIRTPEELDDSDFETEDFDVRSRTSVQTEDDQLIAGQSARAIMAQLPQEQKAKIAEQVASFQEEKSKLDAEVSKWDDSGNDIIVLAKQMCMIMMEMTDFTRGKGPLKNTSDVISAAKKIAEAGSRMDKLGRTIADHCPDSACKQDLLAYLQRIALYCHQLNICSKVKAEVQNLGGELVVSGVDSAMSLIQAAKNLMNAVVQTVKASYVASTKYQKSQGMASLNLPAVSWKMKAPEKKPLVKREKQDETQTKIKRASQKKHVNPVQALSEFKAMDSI
Assay: droplet co-partition assay (confocal microscopy); purified fluorescent proteins mixed at equimolar 1 μM with mEGFP-β-catenin (Wt or IDRs*) in droplet formation buffer (50 mM Tris-HCl pH 7.5, 125 mM NaCl, 10% glycerol, 1 mM DTT); droplets induced with 10% PEG-8000; fluorescence inside β-catenin droplets
Conditions: both partners purified

binding result: binds
B1: mEGFP-β-catenin^Wt (natural protein, UniProt P35222 1-781, looked up)
chain: MATQADLMELDMAMEPDRKAAVSHWQQQSYLDSGIHSGATTTAPSLSGKGNPEEEDVDTSQVLYEWEQGFSQSFTQEQVADIDGQYAMTRAQRVRAAMFPETLDEGMQIPSTQFDAAHPTNVQRLAEPSQMLKHAVVNLINYQDDAELATRAIPELTKLLNDEDQVVVNKAAVMVHQLSKKEASRHAIMRSPQMVSAIVRTMQNTNDVETARCTAGTLHNLSHHREGLLAIFKSGGIPALVKMLGSPVDSVLFYAITTLHNLLLHQEGAKMAVRLAGGLQKMVALLNKTNVKFLAITTDCLQILAYGNQESKLIILASGGPQALVNIMRTYTYEKLLWTTSRVLKVLSVCSSNKPAIVEAGGMQALGLHLTDPSQRLVQNCLWTLRNLSDAATKQEGMEGLLGTLVQLLGSDDINVVTCAAGILSNLTCNNYKNKMMVCQVGGIEALVRTVLRAGDREDITEPAICALRHLTSRHQEAEMAQNAVRLHYGLPVVVKLLHPPSHWPLIKATVGLIRNLALCPANHAPLREQGAIPRLVQLLVRAHQDTQRRTSMGGTQQQFVEGVRMEEIVEGCTGALHILARDVHNRIVIRGLNTIPLFVQLLYSPIENIQRVAAGVLCELAQDKEAAEAIEAEGATAPLTELLHSRNEGVATYAAAVLFRMSEDKPQDYKKRLSVELTSSLFRTEPMAWNETADLGLDIGAQGEPLGYRQDDPSYRSFHSGGYGQDALGMDPMMEHEMGGHHPGADYPVDGLPDLGHAQDLMDGLPPGDSNQLAWFDTDL
notes: also called mEGFP-β-cat^Wt; source: E. coli CK600K or BL21-DE3 Star, purified (Glutathione Sepharose, TEV protease cleavage, gel filtration); not shown: GST (from the vector pGEX-2T); mEGFP, N-terminal, kept
